Five molecules from US20180045721A1 can be followed below.

In general, Kd refers to the free concentration of one partner at which half of the binding sites on the other are occupied at equilibrium, for simple one-to-one binding.

The target in this assay is streptavidin, P22629. The assay is described as follows: SPR, BIAcore X100, streptavidin coupled to the chip, peptide in solution.
streptavidin, P22629, sequence (P22629 37-163 limits assumed): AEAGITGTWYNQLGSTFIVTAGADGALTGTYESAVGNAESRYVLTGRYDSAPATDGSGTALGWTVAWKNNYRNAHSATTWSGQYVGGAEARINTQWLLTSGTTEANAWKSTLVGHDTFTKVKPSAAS
On to H-QNDHPQNGGQ-OH, for which the Kd is 320 µM. QNDHPQNGGQ (modifications not checked): the Kd was 10.8 µM. In the case of LYDHPQNGGQ (modifications not checked) it was 9.4 µM. For H-LYDHPQNGGQ-OH, the Kd came to 100 µM.

In the case of NQPWQ (modifications not checked) [head-to-tail cyclic NQpWQ peptide], the Kd came out at 61.3 µM.
